Assay results reported in the DeepSol protein solubility set.

Assay: soluble on expression in E. coli; label from the status in PepcDB or PDB records
For “MSLSIPREFSNAIRFLSIDATLKAKSGHPGMPMGMADIATVLWTKFLKHNPNNPHWINRDRFVLSNGHGSMLLYSLLHLTGYDLSIEDIKNFRQLHSKTPGHPEYGYTPGVETTTGPLGQGVANAVGMALGEKLLSDRYNTPDLKVIDHHTYVFLGDGCLMEGVSHEACSLAGTLGLNKLVAFWDDNNISIDGDTKGWFSDNTPERFRAYGWHVIENVDGHDFVAIEKAINEAHSQQQKPTLICCKTVIGFGSPEKAGTASVHGSPLSDQERASAAKELNWDYQAFEIPQDVYKYWDAREKGQALEANWQGQRNLFKDSPKFDEFERVLSKELPVGLESAINDYIASQLSNPVKVATRKASQMVLEVLCKNMPEMFGGSADLTGSNNTNWSGSVWLNNTQEGANYLSYGVREFGMAAIMNGLSLYGGIKPYGGTFLVFSDYSRNAIRMSALMKQPVVHVMSHDSIGLGEDGPTHQPIEHVPSLRLIPNLSVWRPADTIETMIAWKEAVKSKDTPSVMVLTRQNLMPVVQTQHQVANIARGGYLVKDNPDAKLTIVATGSEVELAVKVANEFEKKGIKLNVASIPCVEVFATQAHEYKKTVIKDDIPAVFVEMAQPDMWYKYMPKAGGEVKGIYSFGESAPAEDLFKRFGFTVENISNIVAKYV”, the “soluble on expression in E. coli” value was “soluble”. In the case of “MAHHHHHHMSRKRVRAEDIHYWLLKSEPHKFSIDDLAKQKTSPWDGVRNYAARNNMRAMSVGDKVLFYHSNTKEPGVAGLAEVVRLAYDDFTALDKTSEYFDPKATKEKNPWKMVDVKFVARWDTVLTLHELKSRRELQKMALFTQRRLSVQPVSASEYAYILRMNEEQQRK”, the “soluble on expression in E. coli” value is reported as “soluble”. For “MGSDKIHHHHHHMQTFHELEQTQSVIATILRNSLQTNRINHAYIFTGDYEPLLLEAAQLFAKSLFCERRDQIEPCQTCRSCRRMDSGNLVDYYQIEPDGATIKKEQIQELMHDLSLRGLEGDRQIYVVTQSHKMTPQAANSLLKFFEEPGAGKVAILITNQPQLLLPTIRSRGQLLSFRPADRLLIGQVLSEKTGRDNELTQLAARVYPKIEDAEQALVEDWFVNARVSVLQLMEELANRPADLPLFVQEKWMSQFKNRQDARIGLELVTCFFEDVLHLKLNPSWETITYANSRPLLEQMGGKSQTTITRWLQAVLAAVKRIEANVNPQLTVERLMFDLQKG”, the “soluble on expression in E. coli” value was “not soluble”. In the case of “GLDTLDRDGDGSTADADCNDFAPTIHPGAAEATLDGVDSNCDGRDSGVAEVVETFKNPGTYSSPVINFKIASPPGPGTPIYGPPRDFSGYNKSYSLAIGKTSYYDPTTGTKWNDDTITPVSDGQDIWRGWTHTGKWSFFNGKAGDKITLSVQRDAQEASLKGAHPGFILFWRPEGGPLFWAGTQDLDEGQTALPADSDTVIGHVIVQHADWTLQGLPPKADHTAPAGVDTELYPMKPDSYTMYYVDSGYDADKYVASKKLIMHPTAFKGLALNDGTAGAFTKSITLPKTGYYMLYVANVLEVDDWSVDADGKLTTTGEVWEVPAKGCWVNITISKP”, the “soluble on expression in E. coli” value is reported as “soluble”. For “VSIKKSSGLNFDNTAIAINAGKGLEFDTNTSESPDINPIKTKIGSGIDYNENGAMITKLGAGLSFDNSGAITIGNKNDDKLTLWTTPDPSPNCRIHSDNDCKFTLVLTKCGSQVLATVAALAVSGDLSSMTGTVASVSIFLRFDQNGVLMENSSLKKHYWNFRNGNSTNANPYTNAVGFMPNLLAYPKTQSQTAKNNIVSQVYLHGDKTKPMILTITLNGTSESTETSEVSTYSMSFTWSWESGKYTTETFATNSYTFSYIAQE”, the “soluble on expression in E. coli” value was “soluble”. With “MSLAESAFSERIVQNLLDTDFYKLTMMQAVLHNYPNAEVEWEFRCRNQEDLRLYLPAIREQLEYLAGLAISDEQLAFLERIPFLAPDFIRFLGLFRFNPRYVQTGIENDEFFLRLKGPWLHVILFEVPLLAMISEVRNRARYPAATVEQARERLQEKFDWLRREASAEELAGFKMADFGTRRRFSYRVHEAVVSGLKEDFPGCFVGTSNVHLARKLDLKPLGTMAHEWLMAHQQLGPRLIDSQSAALDCWVREYRGLLGIALTDCITTDAFLRDFDLYFAKLFDGLRHDSGDPLLWAEKTIAHYLKLGIDPLTKTLVFSDGLDLPRALKIYRALQGRINVSFGIGTHFTCDLPGVEPMNIVVKMSACNGHPVAKISDTPGKAQCRDPDFIHYLKHVFQVAEGHHHHHH” the “soluble on expression in E. coli” value was “soluble”. For “MSLTRIQLVISDVDGTLVTTDKRLTDRARDAVSRLEASGVGFTLTSSRPPVGMRMYSDPLGITLPLGPFNGSSIVTPTLDVLEQHLIPDSAATISIELFERSGIDIWLFTNDNWYIRRDDGKYVVHEERTIRFSPTMAEDLTPFAGKACKIVGVSADFALLKRCEPELQAALGDRALAVRSQDYYLDVTPPGRSKGTFVATMAERLGIAADAIATIGDMQNDLPMFGVSGLPIAMGNAADDIKQQAAHVTGRNDDDGFAAAIDFILEHNARVGEGHHHHHH”, the “soluble on expression in E. coli” value was “soluble”. With “MGSDKIHHHHHHMANFKVGCGKAMIQFSASELPIREFKSKLDDLYCRVMLISGKNSWALISFDLTSLRAAAIKRYQELAARLLAIDSNQIWVTVTHTFAAPHLPSTTDSMARKSAYRLIDEKLKESLMLACRQAHEDLQAVQVGQVNINCPLNVNRNVLTKQGWWLGRNLEGYSNHQLRVLAFRKADKTTNLLVNYDIQQSVLDHVTDDHGEQMISSDLMGNGIKAYEGNDRVAIFIPGCAGDQRPLFTGKANQPFAVNKALLANQATIVTEKLEWAVQNVHDWQPLRQLRSSQLPVIVPTQVQQRSTFEIKPTKTYDFQSTKQTTTLHLWALRLNQYEIVGTEPELNSSFGDSCRQALAGNTNTMIATLVNGAAKYLPEQIDFERITYQSMNTQLGLTADQCMLEACVQLRQKISEEEY” the “soluble on expression in E. coli” value was “not soluble”. For “MRFYIKTFGCQMNENDSEAMAGLLVKEGFTPASSPEEADVVIINTCAVRRKSEEKAYSELGQVLKLKKKKKIVVGVAGCVAEKEREKFLEKGADFVLGTRAVPRVTEAVKKALEGEKVALFEDHLDEYTHELPRIRTSRHHAWVTIIHGCDRFCTYCIVPYTRGRERSRPMADILEEVKKLAEQGYREVTFLGQNVDAYGKDLKDGSSLAKLLEEASKIEGIERIWFLTSYPTDFSDELIEVIAKNPKVAKSVHLPVQSGSNRILKLMNRRYTKEEYLALLEKIRSKVPEVAISSDIIVGFPTETEEDFMETVDLVEKAQFERLNLAIYSPREGTVAWKYYKDDVPYEEKVRRMQFLMNLQKRINRKLNERYRGKTVRIIVEAQAKNGLFYGRDIRNKIIAFEGEDWMIGRFADVKVEKITAGPLYGKVVWVEKTPSPVSSSE”, the “soluble on expression in E. coli” value was “soluble”. In the case of “MGHHHHHHSHMEAPGPAQAAAAESNSREVTEDAADWAPALCPSPEARSPEAPAYRLQDCDALVTMGTGTFGRVHLVKEKTAKHFFALKVMSIPDVIRRKQEQHVHNEKSVLKEVSHPFLIRLFWTWHEERFLYMLMEYVPGGELFSYLRNRGHFSSTTGLFYSAEIICAIEYLHSKEIVYRDLKPENILLDRDGHIKLTDFGFAKKLVDRTWTLCGTPEYLAPEVIQSKGHGRAVDWWALGILIFEMLSGFPPFFDDNPFGIYQKILAGKLYFPRHLDFHVKTGRMM”, the “soluble on expression in E. coli” value is reported as “not soluble”. In the case of “GQGKLISVKTDVLDLTINTRGGDVEQALLPAYPKELNSTQPFQLLETSPQFIYQAQSGLTGRDGPDNPANGPRPLYNVEKDAYVLAEGQNELQVPMTYTDAAGNTFTKTFVLKRGDYAVNVNYNVQNAGEKPLEISSFGQLKQSITLPPHLDTGSSNFALHTFRGAAYSTPDEKYEKYKFDTIADNENLNISSKGGWVAMLQQYFATAWIPHNDGTNNFYTANLGNGIAAIGYKSQPVLVQPGQTGAMNSTLWVGPEIQDKMAAVAPHLDLTVDHHHHHH”, the “soluble on expression in E. coli” value is reported as “soluble”. With “MAVREYQKKRRRERIFRAAMELFRNRGFQETTATEIAKAAHVSRGTFFNYYPYKEAVLLDYGSQLLAGLREEVRRLLAQGREPVEVLRHLFRVLAEGTAREKDLLLPMFYELLNPDPVRARAAFEALPLGDLIAEILKPLREQGVLRQDFSLERMGRTLADLYFLSALRWAAYTPGRDLAEELEKNLRLLLEGMLVREAPAPGGL” the “soluble on expression in E. coli” value was “not soluble”. With “MGSDKIHHHHHHMLNLTPSAISQSIQKLRVIFPDPLFIRKGQGVTPTAFAMHLHEYISQGLESILGALDIEGSYDKQRTITIATTPSVGALVLPVIYRAIKTHYPQLLLRNPPISDAENQLSQFQTDLIIDNMFCTNRTVQHHVLFTDNMVLICREGNPLLSLEDDRETIDNAAHVLLLPEEQNFSGLRQRVQEMFPDRQINFTSYNILTIAALVANSDMLAIIPSRFYNLFSRCWPLEKLPFPSLNEEQIDFSIHYNKFSLRDPILHGVIDVIRNAF” the “soluble on expression in E. coli” value was “not soluble”. With “MSIFDHYQSRYEAAKDEEMSLQEFLALCKDDKSAYANAAERLLMAIGEPEIIDTAKDPRLSRIFSNRVISRYETFKDFYGMEDAIEQIVSYLKHAAQGLEERKQILYLLGPVGGGKSSLAEKLKSLMEAMPIYVLSANGERSPVNDHPFCLFKATEDGEILKTDYGIEQRYLRSIMSPWAAKRLHEFGGDITKFKVMKVRPSILDQIGIAKTEPGDENNQDISSLVGKVDIRKLEHYSQDDPDAYSYSGALCKANQGLMEFVEMFKAPIKVLHPLLTATQEGNFNGTEGLSAIPFDGMILAHSNESEWQTFRNNKNNEAFLDRVYIVKVPYCLRVSEEVKIYQKLLENSELSQAPCSPSTLETLAQFSILSRLKEPENSS” the “soluble on expression in E. coli” value was “not soluble”. In the case of “MGSDKIHHHHHHMVINIEQAIAWMASRKGKVTYSMDYRNGPSSYDCSSSVYFALRSAGASDNGWAVNTEYEHDWLIKNGYVLIAENTNWNAQRGDIFIWGKRGASAGAFGHTGMFVDPDNIIHCNYGYNSITVNNHDEIWGYNGQPYVYAYRYARKQSNAKVDNQSVVSKFEKELDVNTPLSNSNMPYYEATISEDYYVESKPDVNSTDKELLVAGTRVRVYEKVKGWARIGAPQSNQWVEDAYLIDATDM”, the “soluble on expression in E. coli” value is reported as “not soluble”. With “MAHHHHHHMCGVIEGLWTRGGRVFHRYVRPSDPRRISAAAAAVHGITWETVQNCSPWPVVARELVAYMALVGADAPVSASAQLEAAQLGGQRAVHLPPLVAHNASFDARFLEHHLRRCGYQIFWHPRYPLTCTRQWAQVAYPHLANNLDALCAFLSIDWAADRAANGHDALTDATLTALLFLQMCRRWMERFGRGE” the “soluble on expression in E. coli” value was “not soluble”. With “MGSDKIHHHHHHMLKSIKSSGVTAVLDHDGFNKRIRVVRYDGAIEKALPDIVAAAKEENAEKIIVYAKQHDEPILAKQLFAPEGYLKGYYLGHSACVMVRYLSESRRQTDSYTEEQEIIEAIYRTAPRLRNDSTPVFTMRKAETNDMYQLSMLYKKVFRTYPTPVFDPAYIEKTMNANTVYYIMLDHDRLISAASAEINPELGHAEITDCAVLPEYRGHSLTSFLIEALEKEMAGEDIVHVFSLARASSFGMNAVLYHSGYQYGGRLINNCFIAEGLENMNIWCKQL” the “soluble on expression in E. coli” value was “not soluble”. With “MPSKQDVLLLDYWDQWAEAYRINGKSINTVYRYKLFRKHLKSRFDGRKLNSIRPIEWQKFINDFAAGKDRKEKTTRKRPRERSKDIVTKMNSYVRGMVKAAINERILFSDFTFGTKTSGVRSSGKVKVLEHHHHHH” the “soluble on expression in E. coli” value was “soluble”. With “MPTNCAAAGCATTYNKHINISFHRFPLDPKRRKEWVRLVRRKNFVPGKHTFLCSKHFEASCFDLTGQTRRLKMDAVPTIFDFCTHIKSMKLKSRNLLKKNNSCSPAGPSNLKSNISSQQVLLEHSYAFRNPMEAKKRIIKLEKEIASLRRKMKTCLQKERRATRRWIKATCLVKNLEANSVLPKGTSEHMLPTALSSLPLEDFKILEQDQQDKTLLSLNLKQTKSTFI” the “soluble on expression in E. coli” value was “not soluble”. With “MQVRRAVLGAAHVERSLANLTPFNEEFQEMITRHAWGDIWTRPGLPRHTRSLVTIAMLIGMNRNEELKLHLRAAKNNGVSRDEIKEVIMQSAIYCGIPAANATFHLAESVWDELGVESQQASR” the “soluble on expression in E. coli” value was “not soluble”. For “MKNNAIGSNWKDVRAELFSKEEILESDMRVAIMSELIEARNEKGISQKKLEEMSGVSQPVIARMETGKTSPQLDTVLKVLASLGKTLAVVPLEHEQV”, the “soluble on expression in E. coli” value was “not soluble”.
